Data from patent publication US7618787B2, “Method of screening compound capable of accelerating or inhibiting apoptosis, apoptosis accelarator and apoptosis inhibitor” (Hisamitsu Pharmaceutical Co., Inc., priority 2004, dated 2009).

What was measured:
p73 [1] = biological target: T1, p73 (Homo sapiens, UniProt O15350); test: Co-immunoprecipitation with p73 in transfected COS7 cells; assay type: binding; settings: COS7, data not shown
T1 construct: expressed in transfected cells; host or cells: COS7
T1 sequence (O15350 1-499 isoform O15350-2): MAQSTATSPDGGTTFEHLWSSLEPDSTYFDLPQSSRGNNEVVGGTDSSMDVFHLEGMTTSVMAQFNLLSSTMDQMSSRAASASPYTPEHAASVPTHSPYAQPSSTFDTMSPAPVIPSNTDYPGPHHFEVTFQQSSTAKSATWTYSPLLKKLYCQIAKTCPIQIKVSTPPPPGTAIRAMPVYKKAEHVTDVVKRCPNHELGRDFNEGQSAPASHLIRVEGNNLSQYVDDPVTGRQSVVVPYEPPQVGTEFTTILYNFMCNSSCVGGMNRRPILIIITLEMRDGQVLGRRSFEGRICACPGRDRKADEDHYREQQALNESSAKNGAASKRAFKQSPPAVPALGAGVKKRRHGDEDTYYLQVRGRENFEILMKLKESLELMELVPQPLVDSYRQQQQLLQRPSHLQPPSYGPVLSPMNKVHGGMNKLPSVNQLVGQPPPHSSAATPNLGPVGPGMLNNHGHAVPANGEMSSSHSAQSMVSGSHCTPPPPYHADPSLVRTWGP
Experimental: (§1) Whole cell lysates were centrifuged at 15000 rpm for 15 minutes to remove cell debris. The obtained supernatant was pretreated at 4° C. for 30 minutes with protein G-Sepharose (50% slurry, 30 μL; Amersham Pharmacia Biotech). After centrifugation, the supernatant was incubated at 4° C. for 2 hours with an anti-HA polyclonal (Medical and Biological Laboratories) or anti-FLAG monoclonal antibody. The immunocomplexes were precipitated at 4° C. for 30 minutes with protein G-Sepharose beads. After collection by brief centrifugation, the immunoprecipitates were washed three times with lysis buffer, then suspended in 30 μL of 2×Laemmli SDS sample buffer, and treated at 100° C. for 5 minutes. The supernatant was loaded onto 10% SDS-PAGE and analyzed by immunoblot as described above.
(§2) To investigate whether IKK-α interacted with p73 in cultured mammal cells, whole cell lysates were prepared from transfected COS7 cells, then immunoprecipitated with an anti-FLAG or anti-HA antibody, and analyzed by immunoblot using an anti-p73 or anti-FLAG antibody, respectively. […] Likewise, HA-p73β was co-immunoprecipitated with FLAG-IKK-α (data not shown). […] To identify determinants of p73 participating in the interaction with IKK-α, several deletion mutants of p73 fused to GST were prepared and examined for their abilities to bind to FLAG-IKK-α by in-vitro pull-down assay. These mutants were designed on the basis of the functional domains of p73 including transactivation, DNA-binding, oligomerization, and SAM domains (FIG. 12).

p73 [2] = biological target: T2, p73 (Homo sapiens, UniProt O15350); test: as above; assay type: binding; settings: COS7, co-immunoprecipitation (FIG. 10, FIG. 28)
T2 construct: expressed in transfected cells; host or cells: COS7
T2 sequence (O15350 1-636): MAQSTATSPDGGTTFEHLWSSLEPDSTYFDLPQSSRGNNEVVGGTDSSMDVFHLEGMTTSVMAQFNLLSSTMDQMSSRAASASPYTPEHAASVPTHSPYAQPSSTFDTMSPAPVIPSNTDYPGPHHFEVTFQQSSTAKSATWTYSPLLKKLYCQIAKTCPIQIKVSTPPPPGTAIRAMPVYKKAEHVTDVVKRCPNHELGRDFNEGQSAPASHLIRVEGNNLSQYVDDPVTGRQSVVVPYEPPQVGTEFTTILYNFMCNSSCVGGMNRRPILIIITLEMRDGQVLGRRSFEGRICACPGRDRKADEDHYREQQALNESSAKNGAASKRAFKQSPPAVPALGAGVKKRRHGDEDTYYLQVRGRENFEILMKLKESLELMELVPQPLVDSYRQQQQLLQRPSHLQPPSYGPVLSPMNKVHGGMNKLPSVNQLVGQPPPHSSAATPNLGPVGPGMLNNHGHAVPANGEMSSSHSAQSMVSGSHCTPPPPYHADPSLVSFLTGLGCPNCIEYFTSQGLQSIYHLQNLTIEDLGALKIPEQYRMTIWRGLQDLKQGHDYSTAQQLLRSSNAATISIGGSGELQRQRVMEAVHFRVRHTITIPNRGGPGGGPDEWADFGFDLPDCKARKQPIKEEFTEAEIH
Experimental: as §1, §2

p73 [3] = biological target: T1, p73; test: p73 protein level (stabilization) by immunoblot in cotransfected COS7 cells; assay type: cell-based; settings: COS7 cotransfection
Experimental: (§3) Cells were transiently transfected with a total of 2 μg of expression plasmids. After 48 hours of the transfection, the cells were washed with ice-cold PBS and suspended in lysis buffer (pH 8.0; which contained 25 mM Tris-Cl, 137 mM sodium chloride, 1% Triton X-100, 1 mM phenylmethylsulfonyl fluoride (PMSF), and protease inhibitor mix (Roche Molecular Biochemicals)), followed by brief sonication. After centrifugation at 15000 rpm for 10 minutes, the supernatant was collected and assayed for protein concentrations by the Bradford assay (Bio-Rad). Equal amounts of lysates (protein amount: 50 μg) from the whole cells were denatured by boiling in Laemmli SDS-sample buffer, then separated on 10% SDS-polyacrylamide gel (SDS-PAGE), and transferred at room temperature for 1 hour to polyvinylidene difluoride (PVDF) membranes (Immobilon-P; Millipore) in Tris-glycine buffer containing 10% methanol. The membranes were blocked at room temperature for 1 hour with Tris-buffered saline (TBS-T) containing 5% skim milk and 0.1% Tween 20.
As previously reported, some protein kinases (e.g., c-Abl and PKCδ) that interact with p73 can stabilize p73. To confirm whether IKK-α influenced the stabilization of p73, COS7 cells were transfected with a constant amount of HA-p73α expression plasmid together with or without varying amounts of IKK-α expression plasmids and examined for HA-p73α protein levels. […] Next, whether IKK-β influenced the stabilization of p73 and p53 was investigated by transient transfection.

p53 = p53 protein level (stabilization) by immunoblot in cotransfected COS7 cells; assay type: cell-based; settings: COS7 cotransfection (FIG. 14, 15)
Experimental: as §3
As previously reported, some protein kinases (e.g., c-Abl and PKCδ) that interact with p73 can stabilize p73. To confirm whether IKK-α influenced the stabilization of p73, COS7 cells were transfected with a constant amount of HA-p73α expression plasmid together with or without varying amounts of IKK-α expression plasmids and examined for HA-p73α protein levels. […]

HA-p73α = biological target: T3, HA-p73α (Homo sapiens, UniProt O15350); test: Ubiquitination assay in COS7 cells; assay type: cell-based; settings: COS7, HA-p73α and HA-ubiquitin, MG-132 (FIG. 18, 19)
T3 construct: expressed in transfected cells; host or cells: COS7
T3 sequence (O15350 1-636): T2 sequence (O15350 1-636)
Experimental: COS7 cells were transiently transfected with a constant amount of expression plasmids encoding HA-p73α and HA-Ub in the presence or absence of varying amounts of IKK-α expression plasmids. After […] from the transfection, the cells were exposed for 6 hours to a proteasome inhibitor MG-132 (final concentration: 20 μM), and lysates from the whole cells were first subjected to immunoprecipitation with an anti-p73 monoclonal antibody and then to immunoblot using an anti-HA monoclonal antibody (12CA5; Roche Molecular Biochemicals) to analyze ubiquitination levels.
As described by Lee, C.-W. et al., Oncogene 18: 4171-4181 (1999), the steady-state level of p73 was regulated at least partially by the proteolytic process through the ubiquitin-proteasome pathway. Whether IKK-α inhibited the ubiquitination of p73 was investigated. COS7 cells were transfected with expression plasmids for HA-p73α and HA-ubiquitin together with or without varying amounts of IKK-α or FLAG-IKK-β expression plasmids. After 48 hours of the transfection, lysates from the whole cells were analyzed by immunoprecipitation and immunoblot and examined for the presence of p73α containing HA-ubiquitin.

co-immunoprecipitation with HA-p73β (p73 [1]): co-immunoprecipitated
complex formation with HA-p73α (p73 [2]): formed stable complexes
amount of ubiquitinated p73α (HA-p73α): decreased
B1: IKK-α: IKK-α protein, amino acid sequence SEQ ID NO: 24, expressed from plasmid; apoptosis enhancer (protein, listed as Homo sapiens)
chain: MERPPGLRPGAGGPWEMRERLGTGGFGNVCLYQHRELDLKIAIKSCRLELSTKNRERWCHEIQIMKKLNHANVVKACDVPEELNILIHDVPLLAMEYCSGGDLRKLLNKPENCCGLKESQILSLLSDIGSGIRYLHENKIIHRDLKPENIVLQDVGGKIIHKIIDLGYAKDVDQGSLCTSFVGTLQYLAPELFENKPYTATVDYWSFGTMVFECIAGYRPFLHHLQPFTWHEKIKKKDPKCIFACEEMSGEVRFSSHLPQPNSLCSLIVEPMENWLQLMLNWDPQQRGGPVDLTLKQPRCFVLMDHILNLKIVHILNMTSAKIISFLLPPDESLHSLQSRIERETGINTGSQELLSETGISLDPRKPASQCVLDGVRGCDSYMVYLFDKSKTVYEGPFASRSLSDCVNYIVQDSKIQLPIIQLRKVWAEAVHYVSGLKEDYSRLFQGQRAAMLSLLRYNANLTKMKNTLISASQQLKAKLEFFHKSIQLDLERYSEQMTYGISSEKMLKAWKEMEEKAIHYAEVGVIGYLEDQIMSLHAEIMELQKSPYGRRQGDLMESLEQRAIDLYKQLKHRPSDHSYSDSTEMVKIIVHTVQSQDRVLKELFGHLSKLLGCKQKIIDLLPKVEVALSNIKEADNTVMFMQGKRQKEIWHLLKIACTQSSARSLVGSSLEGAVTPQTSAWLPPTSAEHDHSLSCVVTPQDGETSAQMIEENLNCLGHLSTIIHEANEEQGNSMMNLDWSWLTE
stabilization of HA-p73β (p73 [3]): stabilized by IKK-α at a degree lower than that of HA-p73α
stabilization of p53 (p53): no detectable effect on the stabilization of FLAG-p53
